In patent US20230381333A1, “PHARMACEUTICAL COMPOSITION COMPRISING GLUCAGON/GLP-1/GIP TRIPLE AGONIST OR LONG-ACTING CONJUGATE THEREOF FOR PREVENTING OR TREATING VASCULITIS” (HANMI PHARM CO., LTD., priority 2020, published 2023):
Bridge positions count the residues as written; N and C are the ends. Square brackets hold non-standard residues; d marks the D form. Ends that are not written are not given here. Aib = CC(C)(N)C(=O)O

What was measured:
Assay type in all cases: cell-based
human GLP-1 receptor = molecular target: T1, human GLP-1 receptor (Homo sapiens, UniProt P43220); assay: In vitro cAMP activity in human GLP-1 receptor-expressing CHO cells (LANCE cAMP kit); conditions: long-acting conjugate; relative titer from cAMP EC50 compared to human GLP-1
T1 construct: expressed in transfected cells; host or cells: Chinese hamster ovary (CHO)
Method: (§1) In order to measure the activity of the triple agonists and long-acting conjugates thereof prepared according to Examples 1 and 2, the in-vitro cell activity was measured using cell lines transformed with GLP-1 receptor, glucagon (GCG) receptor, and GIP receptor, respectively.
(§2) The cell lines were transformed to express human GLP-1 receptor, human GCG receptor and human GIP receptor genes in Chinese hamster ovary (CHO), respectively, and are suitable for measuring the activities of GLP-1, GCG, and GIP. Therefore, the activity for each part was measured using each transformed cell line.
(§3) To measure the GLP-1 activity of the triple agonists and long-acting conjugates prepared according to Examples 1 and 2, human GLP-1 was diluted from 50 nM to 0.000048 nM by 4-fold serial dilution, and the triple agonists and long-acting conjugates thereof prepared according to Examples 1 and 2 were diluted from 400 nM to 0.00038 nM by 4-fold serial dilution. The culture medium was removed from the cultured human GLP-1 receptor-expressing CHO cells, 5 μl of each of the serially diluted materials was added to the cells, and then 5 μl of buffer containing cAMP antibody was added to the cells, followed by 15 minutes of incubation at room temperature. Then, cells were lysed by adding 10 μl of detection mix containing cell lysis buffer, and reacted at room temperature for 90 minutes. The cell lysate after the reaction had been completed, was applied to the LANCE cAMP kit (PerkinElmer, USA) to calculate the EC50 value through the accumulated cAMP, and then compared with each other.

human GCG receptor = molecular target: T2, human GCG receptor (Homo sapiens, UniProt P47871); assay: In vitro cAMP activity in human GCG receptor-expressing CHO cells (LANCE cAMP kit); conditions: for In vitro activity compared to native-type peptide (%) vs Glucagon: long-acting conjugate, relative titer from cAMP EC50 compared to human GCG; for activity on the glucagon receptor: in words
T2 construct: expressed in transfected cells; host or cells: Chinese hamster ovary (CHO)
Method: as §1, §2
as §3, with “GCG” for “GLP-1”, “to” for “to 0.000048”

human GIP receptor = molecular target: T3, human GIP receptor (Homo sapiens, UniProt P48546); assay: In vitro cAMP activity in human GIP receptor-expressing CHO cells (LANCE cAMP kit); conditions: long-acting conjugate; relative titer from cAMP EC50 compared to human GIP
T3 construct: expressed in transfected cells; host or cells: Chinese hamster ovary (CHO)
T3 sequence (P48546 22-466): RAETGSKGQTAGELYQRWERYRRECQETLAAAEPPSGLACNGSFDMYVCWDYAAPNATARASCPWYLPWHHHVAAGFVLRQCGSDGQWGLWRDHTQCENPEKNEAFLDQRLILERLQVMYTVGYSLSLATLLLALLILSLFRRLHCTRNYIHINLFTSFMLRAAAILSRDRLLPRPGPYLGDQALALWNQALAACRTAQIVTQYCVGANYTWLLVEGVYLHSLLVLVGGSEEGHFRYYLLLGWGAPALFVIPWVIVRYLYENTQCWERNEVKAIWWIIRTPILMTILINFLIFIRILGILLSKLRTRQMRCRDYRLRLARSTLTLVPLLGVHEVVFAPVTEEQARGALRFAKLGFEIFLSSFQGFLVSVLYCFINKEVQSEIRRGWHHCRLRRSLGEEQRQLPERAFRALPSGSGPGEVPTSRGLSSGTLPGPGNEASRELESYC
Method: as §1, §2
as §3, with “measure the GIP activity of” for “measure the GLP-1 activity of”, “long-acting conjugates thereof prepared according” for “long-acting conjugates prepared according”, “2, human GIP was diluted” for “2, human GLP-1 was diluted”, “nM to […] by” for “nM to 0.000048 nM by”, “cultured human GIP receptor-expressing CHO” for “cultured human GLP-1 receptor-expressing CHO”

T1 sequence (P43220 24-463): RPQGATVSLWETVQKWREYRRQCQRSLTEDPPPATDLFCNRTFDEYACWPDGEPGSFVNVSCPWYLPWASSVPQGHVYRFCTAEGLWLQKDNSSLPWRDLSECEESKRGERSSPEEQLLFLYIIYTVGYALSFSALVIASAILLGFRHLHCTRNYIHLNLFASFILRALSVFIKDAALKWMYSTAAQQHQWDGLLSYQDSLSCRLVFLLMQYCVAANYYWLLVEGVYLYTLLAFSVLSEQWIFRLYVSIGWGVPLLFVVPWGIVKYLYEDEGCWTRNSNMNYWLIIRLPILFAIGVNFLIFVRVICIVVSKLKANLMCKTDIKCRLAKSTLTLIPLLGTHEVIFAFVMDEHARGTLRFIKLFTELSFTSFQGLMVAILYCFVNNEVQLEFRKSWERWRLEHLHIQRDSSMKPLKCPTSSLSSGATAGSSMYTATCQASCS
T2 sequence (P47871 26-477): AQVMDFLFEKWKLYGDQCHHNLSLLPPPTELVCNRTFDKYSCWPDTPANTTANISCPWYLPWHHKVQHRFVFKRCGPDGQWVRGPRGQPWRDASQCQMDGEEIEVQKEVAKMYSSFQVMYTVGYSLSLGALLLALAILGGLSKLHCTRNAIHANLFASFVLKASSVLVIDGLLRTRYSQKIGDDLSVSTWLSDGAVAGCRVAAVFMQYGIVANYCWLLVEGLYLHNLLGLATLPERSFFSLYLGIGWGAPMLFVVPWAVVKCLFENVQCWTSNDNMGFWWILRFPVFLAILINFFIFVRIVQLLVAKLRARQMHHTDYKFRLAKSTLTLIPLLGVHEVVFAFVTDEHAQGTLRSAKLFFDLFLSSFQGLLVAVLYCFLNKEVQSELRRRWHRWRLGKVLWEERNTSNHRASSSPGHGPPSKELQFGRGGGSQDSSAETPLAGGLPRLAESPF

| Substance | In vitro activity compared to native-type peptide (%) vs GLP-1 (human GLP-1 receptor) [%] | In vitro activity compared to native-type peptide (%) vs Glucagon (human GCG receptor) [%] | In vitro activity compared to native-type peptide (%) vs GIP (human GIP receptor) [%] | activity on the glucagon receptor (human GCG receptor) |
| --- | --- | --- | --- | --- |
| 21 (Y[Aib]QGTFTSDYSKYLDECRAKEFVQWLLDHHPSSGQPPPS; lactam 16-20) [compound 21] | 0.1 | 1.6 | 0.2 |  |
| 22 (Y[Aib]QGTFTSDYSKCLDEKRAKEFVQWLLDHHPSSGQPPPS; lactam 16-20) [compound 22] | 0.1 | 0.9 | 0.5 |  |
| 77 (Y[Aib]QGTFTSDYSKYLDEKAAKDFVQWLLDHHPSSGQPPPSC; lactam 16-20) [compound 77] | 6.7 | 1.7 | 6.6 |  |
| 96 (Y[Aib]QGTFTSDYSKYLDEKRAKEFVQWLLDHCPSSGQPPPS; lactam 16-20) [compound 96] | 0.3 | 4.0 | 0.3 |  |
| YXQGTFTSDYSKCLDEKRAKEFVQWLLDHHPSSGQPPPS (Y[Aib]QGTFTSDYSKCLDEKRAKEFVQWLLDHHPSSGQPPPS; lactam 16-20) [Sequence number 22] |  |  |  | very high activity |
| YXQGTFTSDYSKYLDECRAKDFVQWLLDHHPSSGQPPPS (Y[Aib]QGTFTSDYSKYLDECRAKDFVQWLLDHHPSSGQPPPS; lactam 16-20) [Sequence number 66] |  |  |  | very high activity |
| YXQGTFTSDYSKYLDECRAKEFVQWLLDHHPSSGQPPPS (Y[Aib]QGTFTSDYSKYLDECRAKEFVQWLLDHHPSSGQPPPS; lactam 16-20) [Sequence number 21] |  |  |  | very high activity |
| YXQGTFTSDYSKYLDEKRAKEFVQWLLDCHPSSGQPPPS (Y[Aib]QGTFTSDYSKYLDEKRAKEFVQWLLDCHPSSGQPPPS; lactam 16-20) [Sequence number 97] |  |  |  | very high activity |
| YXQGTFTSDYSKYLDEKRAKEFVQWLLDHCPSSGQPPPS (Y[Aib]QGTFTSDYSKYLDEKRAKEFVQWLLDHCPSSGQPPPS; lactam 16-20) [Sequence number 96] |  |  |  | very high activity |

More lines, now with the values ahead:

| In vitro activity compared to native-type peptide (%) vs GLP-1 (human GLP-1 receptor) [%] | In vitro activity compared to native-type peptide (%) vs Glucagon (human GCG receptor) [%] | In vitro activity compared to native-type peptide (%) vs GIP (human GIP receptor) [%] | activity on the glucagon receptor (human GCG receptor) | Substance |
| --- | --- | --- | --- | --- |
| 3.1 | 23.1 | 1.2 |  | 42 (Y[Aib]QGTFTSDYSKYLDEKRAKEFVQWLLDHHPSSGQPPPSC; lactam 16-20) [compound 42] |
| 2.1 | 13.5 | 0.6 |  | 43 (Y[Aib]QGTFTSDYSKYLDEKRAKEFVQWLLDHHCSSGQPPPS; lactam 16-20) [compound 43] |
| 15.4 | 6.9 | 0.7 |  | 50 (H[Aib]QGTFTSDYSKYLDEKRAKEFVQWLLDHHPSSGQPPPSC; lactam 16-20) [compound 50] |
|  |  |  | very high activity | YXQGTFTSDYSKYLDEKRAKEFVQWLLDHHCSSGQPPPS (Y[Aib]QGTFTSDYSKYLDEKRAKEFVQWLLDHHCSSGQPPPS; lactam 16-20) [Sequence number 43] |
|  |  |  | very high activity | YXQGTFTSDYSKYLDEKRAKEFVQWLLDHHPSSGQPPPSC (Y[Aib]QGTFTSDYSKYLDEKRAKEFVQWLLDHHPSSGQPPPSC; lactam 16-20) [Sequence number 42] |
